Results: US20250163162A1

Molecular target: T1, IL10Rα/IL2Rγ receptor (human) (UniProt Q13651)
T1 sequence (looked up) 1: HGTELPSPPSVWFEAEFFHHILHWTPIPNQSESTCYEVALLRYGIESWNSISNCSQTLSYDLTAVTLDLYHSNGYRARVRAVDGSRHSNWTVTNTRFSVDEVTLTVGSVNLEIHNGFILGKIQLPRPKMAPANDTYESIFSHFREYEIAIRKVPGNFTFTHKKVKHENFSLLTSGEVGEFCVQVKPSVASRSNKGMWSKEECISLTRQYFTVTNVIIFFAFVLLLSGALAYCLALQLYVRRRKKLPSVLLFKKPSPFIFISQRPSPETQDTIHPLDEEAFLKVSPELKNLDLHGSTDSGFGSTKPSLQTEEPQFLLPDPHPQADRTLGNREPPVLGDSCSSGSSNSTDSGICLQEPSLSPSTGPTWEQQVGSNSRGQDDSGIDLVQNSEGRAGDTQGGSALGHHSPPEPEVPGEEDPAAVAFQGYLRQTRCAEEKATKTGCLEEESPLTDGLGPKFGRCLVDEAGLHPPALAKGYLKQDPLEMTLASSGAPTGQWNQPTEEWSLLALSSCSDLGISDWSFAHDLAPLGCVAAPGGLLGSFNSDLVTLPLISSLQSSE
T1 sequence (looked up) 2: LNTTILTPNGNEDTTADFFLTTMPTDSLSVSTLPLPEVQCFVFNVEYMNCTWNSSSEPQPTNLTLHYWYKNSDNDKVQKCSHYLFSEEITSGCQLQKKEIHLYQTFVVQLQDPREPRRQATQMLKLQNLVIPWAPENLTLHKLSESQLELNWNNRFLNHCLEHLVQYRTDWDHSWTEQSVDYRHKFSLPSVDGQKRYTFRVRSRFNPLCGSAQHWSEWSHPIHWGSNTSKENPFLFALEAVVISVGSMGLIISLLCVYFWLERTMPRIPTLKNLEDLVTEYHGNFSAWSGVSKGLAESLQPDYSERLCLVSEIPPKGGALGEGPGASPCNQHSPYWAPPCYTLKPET
Assay: cell-based or functional assay

B1: hIL10Ra_VHH14 - hIL2Rg_VHH19, linker …, tag his (bispecific antibody, not shown: small tags and cut ends)
chain: QVQLQESGGGSVQAGGSLRLSCGASGYTYSSYCMGWFRQVPGKEREGVAVIDSDGSTSYADSVKGRFTISKDNGKNTLYLQMNSLKPEDTAMYYCAADLGHYRPPCGVLYLGMDYWGKGTQVTVSSGGSGGSGGSGQVQLQESGGGSVQAGGSLRLSCTASGFTFDDREMNWYRQAPGNECELVSTISSDGSTYYADSVKGRFTISQDNAKNTVYLQMDSVKPEDTAVYYCAADFMIAIQAPGAGCWGQGTQVTVSS
Granzyme A secretion, CD8 T cells, at 0 µM: 25200 pg/mL | Granzyme A secretion, CD8 T cells, at 0.0001 µM: 20600 pg/mL | Granzyme A secretion, CD8 T cells, at 0.001 µM: 25200 pg/mL | Granzyme A secretion, CD8 T cells, at 0.01 µM: 28100 pg/mL | Granzyme A secretion, CD8 T cells, at 0.1 µM: 29300 pg/mL | Granzyme A secretion, CD8 T cells, at 1 µM: 31000 pg/mL | Granzyme A secretion, CD8 T cells, at 10 µM: 31500 pg/mL | Granzyme A secretion, CD8 T cells, at 100 µM: 29900 pg/mL | Granzyme B secretion, CD8 T cells, at 0 µM: 77700 pg/mL | Granzyme B secretion, CD8 T cells, at 0.0001 µM: 68900 pg/mL | Granzyme B secretion, CD8 T cells, at 0.001 µM: 70600 pg/mL | Granzyme B secretion, CD8 T cells, at 0.01 µM: 71000 pg/mL | Granzyme B secretion, CD8 T cells, at 0.1 µM: 79300 pg/mL | Granzyme B secretion, CD8 T cells, at 1 µM: 112000 pg/mL | Granzyme B secretion, CD8 T cells, at 10 µM: 125000 pg/mL | Granzyme B secretion, CD8 T cells, at 100 µM: 106000 pg/mL | IFNγ secretion, CD8 T cells, at 0 µM: 122000 pg/mL | IFNγ secretion, CD8 T cells, at 0.0001 µM: 90100 pg/mL | IFNγ secretion, CD8 T cells, at 0.001 µM: 125000 pg/mL | IFNγ secretion, CD8 T cells, at 0.01 µM: 127000 pg/mL | IFNγ secretion, CD8 T cells, at 0.1 µM: 130000 pg/mL | IFNγ secretion, CD8 T cells, at 1 µM: 147000 pg/mL | IFNγ secretion, CD8 T cells, at 10 µM: 154000 pg/mL | IFNγ secretion, CD8 T cells, at 100 µM: 141000 pg/mL | IL-1β secretion, LPS treated monocytes, at 0 µM: 6240 pg/mL | IL-1β secretion, LPS treated monocytes, at 0 µM (LPS only): 6880 pg/mL | IL-1β secretion, LPS treated monocytes, at 0.0001 µM: 5890 pg/mL | IL-1β secretion, LPS treated monocytes, at 0.001 µM: 5390 pg/mL | IL-1β secretion, LPS treated monocytes, at 0.01 µM: 6020 pg/mL | IL-1β secretion, LPS treated monocytes, at 0.1 µM: 5240 pg/mL | IL-1β secretion, LPS treated monocytes, at 1 µM: 5680 pg/mL | IL-1β secretion, LPS treated monocytes, at 10 µM: 7120 pg/mL | IL-1β secretion, LPS treated monocytes, at 100 µM: 8780 pg/mL | IL-9 secretion, CD8 T cells, at 0 µM: 1350 pg/mL | IL-9 secretion, CD8 T cells, at 0.0001 µM: 1010 pg/mL | IL-9 secretion, CD8 T cells, at 0.001 µM: 1320 pg/mL | IL-9 secretion, CD8 T cells, at 0.01 µM: 1390 pg/mL | IL-9 secretion, CD8 T cells, at 0.1 µM: 1450 pg/mL | IL-9 secretion, CD8 T cells, at 1 µM: 1590 pg/mL | IL-9 secretion, CD8 T cells, at 10 µM: 2050 pg/mL | IL-9 secretion, CD8 T cells, at 100 µM: 1960 pg/mL

B2: hIL10Ra_VHH14 - hIL2Rg_VHH19, linker GGGSGGGS, tag his (bispecific antibody, not shown: small tags and cut ends)
chain: QVQLQESGGGSVQAGGSLRLSCGASGYTYSSYCMGWFRQVPGKEREGVAVIDSDGSTSYADSVKGRFTISKDNGKNTLYLQMNSLKPEDTAMYYCAADLGHYRPPCGVLYLGMDYWGKGTQVTVSSGGGSGGGSQVQLQESGGGSVQAGGSLRLSCTASGFTFDDREMNWYRQAPGNECELVSTISSDGSTYYADSVKGRFTISQDNAKNTVYLQMDSVKPEDTAVYYCAADFMIAIQAPGAGCWGQGTQVTVSS
Granzyme A secretion, CD8 T cells, at 0 µM: 25200 pg/mL | Granzyme A secretion, CD8 T cells, at 0.0001 µM: 19700 pg/mL | Granzyme A secretion, CD8 T cells, at 0.001 µM: 22300 pg/mL | Granzyme A secretion, CD8 T cells, at 0.01 µM: 22700 pg/mL | Granzyme A secretion, CD8 T cells, at 0.1 µM: 26000 pg/mL | Granzyme A secretion, CD8 T cells, at 1 µM: 30100 pg/mL | Granzyme A secretion, CD8 T cells, at 10 µM: 29300 pg/mL | Granzyme A secretion, CD8 T cells, at 100 µM: 24800 pg/mL | Granzyme B secretion, CD8 T cells, at 0 µM: 77700 pg/mL | Granzyme B secretion, CD8 T cells, at 0.0001 µM: 52600 pg/mL | Granzyme B secretion, CD8 T cells, at 0.001 µM: 45500 pg/mL | Granzyme B secretion, CD8 T cells, at 0.01 µM: 47300 pg/mL | Granzyme B secretion, CD8 T cells, at 0.1 µM: 62200 pg/mL | Granzyme B secretion, CD8 T cells, at 1 µM: 80500 pg/mL | Granzyme B secretion, CD8 T cells, at 10 µM: 83500 pg/mL | Granzyme B secretion, CD8 T cells, at 100 µM: 78100 pg/mL | IFNγ secretion, CD8 T cells, at 0 µM: 122000 pg/mL | IFNγ secretion, CD8 T cells, at 0.0001 µM: 95500 pg/mL | IFNγ secretion, CD8 T cells, at 0.001 µM: 108000 pg/mL | IFNγ secretion, CD8 T cells, at 0.01 µM: 102000 pg/mL | IFNγ secretion, CD8 T cells, at 0.1 µM: 122000 pg/mL | IFNγ secretion, CD8 T cells, at 1 µM: 142000 pg/mL | IFNγ secretion, CD8 T cells, at 10 µM: 143000 pg/mL | IFNγ secretion, CD8 T cells, at 100 µM: 120000 pg/mL | IL-1β secretion, LPS treated monocytes, at 0 µM: 6240 pg/mL | IL-1β secretion, LPS treated monocytes, at 0 µM (LPS only): 6880 pg/mL | IL-1β secretion, LPS treated monocytes, at 0.0001 µM: 5950 pg/mL | IL-1β secretion, LPS treated monocytes, at 0.001 µM: 6200 pg/mL | IL-1β secretion, LPS treated monocytes, at 0.01 µM: 4960 pg/mL | IL-1β secretion, LPS treated monocytes, at 0.1 µM: 5590 pg/mL | IL-1β secretion, LPS treated monocytes, at 1 µM: 5670 pg/mL | IL-1β secretion, LPS treated monocytes, at 10 µM: 6020 pg/mL | IL-1β secretion, LPS treated monocytes, at 100 µM: 6840 pg/mL | IL-9 secretion, CD8 T cells, at 0 µM: 1350 pg/mL | IL-9 secretion, CD8 T cells, at 0.0001 µM: 988 pg/mL | IL-9 secretion, CD8 T cells, at 0.001 µM: 1050 pg/mL | IL-9 secretion, CD8 T cells, at 0.01 µM: 1010 pg/mL | IL-9 secretion, CD8 T cells, at 0.1 µM: 1300 pg/mL | IL-9 secretion, CD8 T cells, at 1 µM: 1380 pg/mL | IL-9 secretion, CD8 T cells, at 10 µM: 1880 pg/mL | IL-9 secretion, CD8 T cells, at 100 µM: 1700 pg/mL
